# Columns and labels:
# Type in all cases: physicochemical
# [1] = Solution phase stability of free base, methanesulfonic acid salt and nitric acid salt (HPLC), Example 17; conditions: solution in distilled water, 25±0.5° C.
# Method: (§1) All HPLC spectra were taken on a Waters HPLC that included Breeze software, a Waters 2487 Dual λ Absorbance Detector, a Waters 1525 Binary HPLC Pump, and a Waters 717 plus Autosampler. The column was a Phenomenex Synergi 4μ Hydro-RP 80A, 250×4.60 mm 4μ micron. The 40 minute gradient that was used is described in the table below.
# A t=0 h timepoint was taken for each solution. The volumetric flasks were placed in a water bath at 25±0.5° C. and, periodically, a 0.7 mL aliquot was removed and the solution analyzed by HPLC as described in Example 15.
# [2] = Solid phase stability of free base, methanesulfonic acid salt and nitric acid salt (HPLC), Example 18; conditions: solid stored at 25±0.5° C.
# Method: as §1
# [3] = Solution phase stability of free base and hydrochloride salt (monomer vs dimer by HPLC), Example 15; conditions: solution in distilled water, 25±1° C.
# Method: A 1.657 mM solution of Ac—PHSCN—NH2 in distilled water and a 1.653 mM solution of the hydrochloride salt of Ac—PHSCN—NH2 in distilled water were placed in a water bath at 25±1° C. Aliquots (800 μL) were periodically removed and the amount of dimerization was determined by HPLC.
# as §1
# Mobile Phase A: 0.1% TFA in acetonitrile Mobile Phase B: 0.1% TFA in water
# (§2) The HPLC peak for Ac-Pro-His-Ser-Cys-Asn-NH2 monomer at approximately 9.2 minutes, and the peak for ATN-161 dimer at approximately 10.0 minutes were integrated in order to determine the percentage of these two species in each sample.
# [4] = Solid phase stability of free base and hydrochloride salt (monomer vs dimer by HPLC), Example 16; conditions: solid stored at 25±1° C.
# Method: as §1, §2
# Samples of 0.8-1.2 mg of Ac—PHSCN—NH2 and Ac—PHSCN—NH2 hydrochloride salt were weighed into HPLC sample vials and stored at 25±1° C. A 0 h time point was taken. Samples were periodically removed and diluted with distilled water to give a 1 mg/mL solution. The amount of dimerization was determined by HPLC as described in Example 15. The results are illustrated graphically in FIG. 3.
substance,measurement,setting,value
Ac-Pro-His-Ser-Cys-Asn-NH2 Methanesulfonic Acid Salt (Ac-PHSCN-NH2; also: methanesulfonic acid salt),% dimer,[1]; 0 h,7.4%
same,% monomer,[1]; 0 h,92.6%
same,% dimer,[1]; 69 h,22.6%
same,% monomer,[1]; 69 h,77.4%
same,% dimer,[1]; 140 h,30.3%
same,% monomer,[1]; 140 h,69.7%
same,% dimer,[1]; 213 h,37.2%
same,% monomer,[1]; 213 h,62.8%
same,% dimer,[1]; 332 h,48.0%
same,% monomer,[1]; 332 h,52.0%
same,% dimer,[1]; 408 h,54.5%
same,% monomer,[1]; 408 h,45.5%
same,% dimer,[1]; 479 h,60.5%
same,% monomer,[1]; 479 h,39.5%
same,% dimer,[1]; 549 h,66.7%
same,% monomer,[1]; 549 h,33.3%
same,% dimer,[1]; 645 h,74.3%
same,% monomer,[1]; 645 h,25.7%
same,% dimer,[1]; 720 h,79.5%
same,% monomer,[1]; 720 h,20.5%
same,% dimer,[1]; 836 h,84.8%
same,% monomer,[1]; 836 h,15.2%
same,% dimer,[2]; 0 h,6.8%
same,% monomer,[2]; 0 h,93.2%
same,% dimer,[2]; 161 h,7.2%
same,% monomer,[2]; 161 h,92.8%
same,% dimer,[2]; 335 h,7.5%
same,% monomer,[2]; 335 h,92.5%
same,% dimer,[2]; 498 h,7.0%
same,% monomer,[2]; 498 h,93.0%
same,% dimer,[2]; 670 h,7.7%
same,% monomer,[2]; 670 h,92.3%
same,% dimer,[2]; 832 h,7.2%
same,% monomer,[2]; 832 h,92.8%
same,% dimer,[2]; 1003 h,7.2%
same,% monomer,[2]; 1003 h,92.8%
same,% dimer,[2]; 1170 h,7.3%
same,% monomer,[2]; 1170 h,92.7%
same,% dimer,[2]; 1363 h,8.6%
same,% monomer,[2]; 1363 h,91.4%
same,% dimer,[2]; 1506 h,7.6%
same,% monomer,[2]; 1506 h,92.4%
same,% dimer,[2]; 1698 h,8.1%
same,% monomer,[2]; 1698 h,91.9%
"Ac-Pro-His-Ser-Cys-Asn-NH2, hydrochloride salt (Ac-PHSCN-NH2; also: hydrochloride salt)",% dimer,[3]; 0 h,0%
same,% monomer,[3]; 0 h,100%
same,% dimer,[3]; 69 h,3.3%
same,% monomer,[3]; 69 h,96.7%
same,% dimer,[3]; 140 h,6.1%
same,% monomer,[3]; 140 h,93.9%
same,% dimer,[3]; 188 h,6.4%
same,% monomer,[3]; 188 h,93.6%
same,% dimer,[3]; 236 h,6.8%
same,% monomer,[3]; 236 h,93.2%
same,% dimer,[3]; 309 h,6.7%
same,% monomer,[3]; 309 h,93.3%
same,% dimer,[3]; 357 h,6.7%
same,% monomer,[3]; 357 h,93.3%
same,% dimer,[3]; 404 h,7.3%
same,% monomer,[3]; 404 h,92.7%
same,% dimer,[3]; 477 h,8.4%
same,% monomer,[3]; 477 h,91.6%
same,% dimer,[3]; 525 h,9.0%
same,% monomer,[3]; 525 h,91.0%
same,% dimer,[3]; 622 h,10.7%
same,% monomer,[3]; 622 h,89.3%
same,% dimer,[4]; 0 h,0%
same,% monomer,[4]; 0 h,100%
same,% dimer,[4]; 73 h,0%
same,% monomer,[4]; 73 h,100%
same,% dimer,[4]; 143 h,0%
same,% monomer,[4]; 143 h,100%
same,% dimer,[4]; 243 h,0%
same,% monomer,[4]; 243 h,100%
same,% dimer,[4]; 312 h,0%
same,% monomer,[4]; 312 h,100%
same,% dimer,[4]; 410 h,0%
same,% monomer,[4]; 410 h,100%
same,% dimer,[4]; 576 h,0.3%
same,% monomer,[4]; 576 h,99.7%
same,% dimer,[4]; 677 h,0.7%
same,% monomer,[4]; 677 h,99.3%
same,% dimer,[4]; 818 h,0%
same,% monomer,[4]; 818 h,100%

# — US20080261892A1, “Acid Addition Salts of Ac-Phscn-Nh2” (priority 2005, published 2008)
